# Measurements as given in paper PMC9482650, “Quantitative fragmentomics allow affinity mapping of interactomes” (Nature Communications, 2022).
# B1: MAP2K2, P36507 (peptide)
# chain: QPGTPTRTAV
# B2: SLCO1C1, Q9NYB5 (peptide)
# chain: NYWPGKETQL
# Target: T1, NHERF3_2, Q5T2W1
# T1 sequence (Q5T2W1 129-225, limits assumed, looked up): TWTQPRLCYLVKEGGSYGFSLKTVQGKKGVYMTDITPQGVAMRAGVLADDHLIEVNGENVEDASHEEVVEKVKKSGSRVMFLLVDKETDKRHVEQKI
# Experiment: holdup assay
# Design: key: below the threshold = too weak to quantify, mostly under pKd 3.1 to 4
# Conditions: plain residues with an end cap or a label only (N-terminal biotin on a linker: ttds)
row,Binder,pKd
1,B1,below the threshold
2,B2,below the threshold

# Target: RIMS2, Q9UQ26
# Sequence (Q9UQ26 637-758): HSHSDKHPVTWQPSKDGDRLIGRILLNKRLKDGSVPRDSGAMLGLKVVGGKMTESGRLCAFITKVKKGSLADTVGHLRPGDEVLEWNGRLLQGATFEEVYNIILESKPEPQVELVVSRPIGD
# Experiment: holdup assay
# Design: key: below the threshold = too weak to quantify, mostly under pKd 3.1 to 4
# Conditions: plain residues with an end cap or a label only (N-terminal biotin on a linker: ttds)
row,Binder,pKd
1,B1,below the threshold
2,B2,below the threshold

# Target: T2, LIN7C, Q9NUP9
# T2 sequence (Q9NUP9 88-185, limits assumed, looked up): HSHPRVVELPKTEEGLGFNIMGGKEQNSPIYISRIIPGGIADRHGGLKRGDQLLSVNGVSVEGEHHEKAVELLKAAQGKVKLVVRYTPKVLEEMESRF
# Experiment: holdup assay
# Design: key: below the threshold = too weak to quantify, mostly under pKd 3.1 to 4
# Conditions: plain residues with an end cap or a label only (N-terminal biotin on a linker: ttds)
row,Binder,pKd
1,B1,below the threshold
2,B2,4.93

# Target: DVL2, O14641
# Sequence (O14641 260-359): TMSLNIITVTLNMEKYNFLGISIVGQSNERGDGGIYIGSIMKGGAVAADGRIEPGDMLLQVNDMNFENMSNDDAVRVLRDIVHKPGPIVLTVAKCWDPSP
# Experiment: holdup assay
# Design: key: below the threshold = too weak to quantify, mostly under pKd 3.1 to 4
# Conditions: plain residues with an end cap or a label only (N-terminal biotin on a linker: ttds)
row,Binder,pKd
1,B1,4.8
2,B2,below the threshold

# Target: T3, SYNPO2L, Q9H987
# T3 sequence (Q9H987 1-98, limits assumed, looked up): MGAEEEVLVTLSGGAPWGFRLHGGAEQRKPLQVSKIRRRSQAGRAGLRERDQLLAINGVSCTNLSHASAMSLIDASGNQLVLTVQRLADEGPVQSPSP
# Experiment: holdup assay
# Design: key: below the threshold = too weak to quantify, mostly under pKd 3.1 to 4
# Conditions: plain residues with an end cap or a label only (N-terminal biotin on a linker: ttds)
row,Binder,pKd
1,B1,below the threshold
2,B2,below the threshold

# Target: T4, PDLIM3, Q53GG5
# T4 sequence (Q53GG5 1-94, limits assumed, looked up): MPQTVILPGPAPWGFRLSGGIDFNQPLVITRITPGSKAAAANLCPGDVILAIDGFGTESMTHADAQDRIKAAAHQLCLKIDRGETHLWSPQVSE
# Experiment: holdup assay
# Design: key: below the threshold = too weak to quantify, mostly under pKd 3.1 to 4
# Conditions: plain residues with an end cap or a label only (N-terminal biotin on a linker: ttds)
row,Binder,pKd
1,B1,below the threshold
2,B2,below the threshold

# Target: Inadl_7, Q8NI35
# Sequence (Q8NI35 1219-1332): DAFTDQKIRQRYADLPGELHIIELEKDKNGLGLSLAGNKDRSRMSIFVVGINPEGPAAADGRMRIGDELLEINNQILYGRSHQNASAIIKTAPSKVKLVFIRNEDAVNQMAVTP
# Experiment: holdup assay
# Design: key: below the threshold = too weak to quantify, mostly under pKd 3.1 to 4
# Conditions: plain residues with an end cap or a label only (N-terminal biotin on a linker: ttds)
row,Binder,pKd
1,B1,below the threshold
2,B2,below the threshold

# Target: T5, PARD6G, Q9BYG4
# T5 sequence (Q9BYG4 153-261, limits assumed, looked up): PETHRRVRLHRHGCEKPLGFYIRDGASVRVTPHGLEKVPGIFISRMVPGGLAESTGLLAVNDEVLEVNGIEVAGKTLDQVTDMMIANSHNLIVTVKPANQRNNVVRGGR
# Experiment: holdup assay
# Design: key: below the threshold = too weak to quantify, mostly under pKd 3.1 to 4
# Conditions: plain residues with an end cap or a label only (N-terminal biotin on a linker: ttds)
row,Binder,pKd
1,B1,below the threshold
2,B2,below the threshold

# Target: T6, MPDZ_7, O75970
# T6 sequence (O75970 1146-1253, limits assumed, looked up): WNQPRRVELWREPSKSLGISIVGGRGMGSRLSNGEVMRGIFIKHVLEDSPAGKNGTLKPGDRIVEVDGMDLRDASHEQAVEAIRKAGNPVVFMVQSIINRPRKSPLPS
# Experiment: holdup assay
# Design: key: below the threshold = too weak to quantify, mostly under pKd 3.1 to 4
# Conditions: plain residues with an end cap or a label only (N-terminal biotin on a linker: ttds)
row,Binder,pKd
1,B1,below the threshold
2,B2,5.2

# Target: T7, PDZD2_1, O15018
# T7 sequence (O15018 80-192, limits assumed, looked up): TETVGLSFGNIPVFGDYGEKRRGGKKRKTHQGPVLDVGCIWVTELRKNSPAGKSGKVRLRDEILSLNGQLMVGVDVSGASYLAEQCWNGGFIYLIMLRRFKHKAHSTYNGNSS
# Experiment: holdup assay
# Design: key: below the threshold = too weak to quantify, mostly under pKd 3.1 to 4
# Conditions: plain residues with an end cap or a label only (N-terminal biotin on a linker: ttds)
row,Binder,pKd
1,B1,below the threshold
2,B2,below the threshold

# Target: T8, USH1C_1, Q9Y6N9
# T8 sequence (Q9Y6N9 82-179, limits assumed, looked up): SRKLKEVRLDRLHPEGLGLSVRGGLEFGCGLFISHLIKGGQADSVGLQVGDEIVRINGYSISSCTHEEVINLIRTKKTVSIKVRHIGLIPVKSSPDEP
# Experiment: holdup assay
# Design: key: below the threshold = too weak to quantify, mostly under pKd 3.1 to 4
# Conditions: plain residues with an end cap or a label only (N-terminal biotin on a linker: ttds)
row,Binder,pKd
1,B1,below the threshold
2,B2,below the threshold

# Target: T9, MPP5, Q8N3R9
# T9 sequence (Q8N3R9 251-346, limits assumed, looked up): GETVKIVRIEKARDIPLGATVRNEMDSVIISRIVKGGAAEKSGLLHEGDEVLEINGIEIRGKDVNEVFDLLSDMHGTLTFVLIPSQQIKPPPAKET
# Experiment: holdup assay
# Design: key: below the threshold = too weak to quantify, mostly under pKd 3.1 to 4
# Conditions: plain residues with an end cap or a label only (N-terminal biotin on a linker: ttds)
row,Binder,pKd
1,B1,below the threshold
2,B2,below the threshold

# Target: T10, DFNB31_2, Q9P202
# T10 sequence (Q9P202 274-371, limits assumed, looked up): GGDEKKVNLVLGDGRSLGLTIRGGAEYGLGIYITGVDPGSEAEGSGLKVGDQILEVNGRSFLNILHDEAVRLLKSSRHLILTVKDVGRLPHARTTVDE
# Experiment: holdup assay
# Design: key: below the threshold = too weak to quantify, mostly under pKd 3.1 to 4
# Conditions: plain residues with an end cap or a label only (N-terminal biotin on a linker: ttds)
row,Binder,pKd
1,B1,below the threshold
2,B2,4.36

# Target: MAGI3_6, Q5TCQ9
# Sequence (Q5TCQ9 1014-1103): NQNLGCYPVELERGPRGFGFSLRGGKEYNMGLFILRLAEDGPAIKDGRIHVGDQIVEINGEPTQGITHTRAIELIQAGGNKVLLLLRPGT
# Experiment: holdup assay
# Design: key: below the threshold = too weak to quantify, mostly under pKd 3.1 to 4
# Conditions: plain residues with an end cap or a label only (N-terminal biotin on a linker: ttds)
row,Binder,pKd
1,B1,below the threshold
2,B2,4.36

# Target: CNKSR3, Q6P9H4
# Sequence (Q6P9H4 203-303): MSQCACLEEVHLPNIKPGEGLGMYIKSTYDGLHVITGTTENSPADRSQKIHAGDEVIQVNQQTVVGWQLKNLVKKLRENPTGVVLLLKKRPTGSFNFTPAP
# Experiment: holdup assay
# Design: key: below the threshold = too weak to quantify, mostly under pKd 3.1 to 4
# Conditions: plain residues with an end cap or a label only (N-terminal biotin on a linker: ttds)
row,Binder,pKd
1,B1,4.05
2,B2,below the threshold

# Target: MAGI3_4, Q5TCQ9
# Sequence (Q5TCQ9 716-815): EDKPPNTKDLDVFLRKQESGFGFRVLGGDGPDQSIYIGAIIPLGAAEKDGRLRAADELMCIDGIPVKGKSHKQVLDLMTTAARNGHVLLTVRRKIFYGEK
# Experiment: holdup assay
# Design: key: below the threshold = too weak to quantify, mostly under pKd 3.1 to 4
# Conditions: plain residues with an end cap or a label only (N-terminal biotin on a linker: ttds)
row,Binder,pKd
1,B1,below the threshold
2,B2,below the threshold

# Target: T11, PDZRN3_2, Q9UPQ7
# T11 sequence (Q9UPQ7 414-513, limits assumed, looked up): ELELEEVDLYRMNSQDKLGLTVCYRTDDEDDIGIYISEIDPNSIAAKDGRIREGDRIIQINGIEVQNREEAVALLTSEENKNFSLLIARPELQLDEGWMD
# Experiment: holdup assay
# Design: key: below the threshold = too weak to quantify, mostly under pKd 3.1 to 4
# Conditions: plain residues with an end cap or a label only (N-terminal biotin on a linker: ttds)
row,Binder,pKd
1,B1,below the threshold
2,B2,below the threshold

# Target: T12, PDZD11, Q5EBL8
# T12 sequence (Q5EBL8 42-139, limits assumed, looked up): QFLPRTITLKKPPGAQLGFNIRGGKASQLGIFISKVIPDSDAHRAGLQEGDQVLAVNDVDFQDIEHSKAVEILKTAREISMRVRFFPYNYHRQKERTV
# Experiment: holdup assay
# Design: key: below the threshold = too weak to quantify, mostly under pKd 3.1 to 4
# Conditions: plain residues with an end cap or a label only (N-terminal biotin on a linker: ttds)
row,Binder,pKd
1,B1,below the threshold
2,B2,below the threshold

# Target: T13, MPDZ_3, O75970
# T13 sequence (O75970 372-473, limits assumed, looked up): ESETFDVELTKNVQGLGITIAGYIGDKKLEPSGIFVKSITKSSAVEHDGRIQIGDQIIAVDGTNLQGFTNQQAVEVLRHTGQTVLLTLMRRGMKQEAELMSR
# Experiment: holdup assay
# Design: key: below the threshold = too weak to quantify, mostly under pKd 3.1 to 4
# Conditions: plain residues with an end cap or a label only (N-terminal biotin on a linker: ttds)
row,Binder,pKd
1,B1,below the threshold
2,B2,below the threshold

# Target: PDZRN4_2, Q6ZMN7
# Sequence (Q6ZMN7 389-498): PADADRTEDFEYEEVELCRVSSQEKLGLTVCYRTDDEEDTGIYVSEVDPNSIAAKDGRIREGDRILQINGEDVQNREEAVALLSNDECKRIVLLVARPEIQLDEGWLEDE
# Experiment: holdup assay
# Design: key: below the threshold = too weak to quantify, mostly under pKd 3.1 to 4
# Conditions: plain residues with an end cap or a label only (N-terminal biotin on a linker: ttds)
row,Binder,pKd
1,B1,below the threshold
2,B2,below the threshold

# Target: T14, USH1C_3, Q9Y6N9
# T14 sequence (Q9Y6N9 447-547, limits assumed, looked up): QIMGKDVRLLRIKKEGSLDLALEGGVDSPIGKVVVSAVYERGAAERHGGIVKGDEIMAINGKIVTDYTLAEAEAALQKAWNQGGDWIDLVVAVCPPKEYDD
# Experiment: holdup assay
# Design: key: below the threshold = too weak to quantify, mostly under pKd 3.1 to 4
# Conditions: plain residues with an end cap or a label only (N-terminal biotin on a linker: ttds)
row,Binder,pKd
1,B1,below the threshold
2,B2,below the threshold

# Target: PTPN13_2, Q12923
# Sequence (Q12923 1363-1462): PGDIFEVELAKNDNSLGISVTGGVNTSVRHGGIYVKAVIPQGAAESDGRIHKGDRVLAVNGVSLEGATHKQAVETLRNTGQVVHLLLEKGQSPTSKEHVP
# Experiment: holdup assay
# Design: key: below the threshold = too weak to quantify, mostly under pKd 3.1 to 4
# Conditions: plain residues with an end cap or a label only (N-terminal biotin on a linker: ttds)
row,Binder,pKd
1,B1,below the threshold
2,B2,below the threshold

# Target: NHERF2_1, Q15599
# Sequence (Q15599 9-91): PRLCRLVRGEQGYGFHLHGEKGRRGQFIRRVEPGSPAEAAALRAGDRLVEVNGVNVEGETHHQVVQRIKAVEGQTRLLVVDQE
# Experiment: holdup assay
# Design: key: below the threshold = too weak to quantify, mostly under pKd 3.1 to 4
# Conditions: plain residues with an end cap or a label only (N-terminal biotin on a linker: ttds)
row,Binder,pKd
1,B1,below the threshold
2,B2,below the threshold
